Results on 2 molecules are retold here after patent publication US20020098523A1 (CAMBRIDGE ANTIBODY TECHNOLOGY, published 2002).

B1: Mouse eotaxin (ligand, UniProt P48298 24-97, looked up)
chain: HPGSIPTSCCFIMTSKKIPNTLLKSYKRITNNRCTLKAIVFKTRLGKEICADPKKKWVQDATKHLDQKLQTPKP
notes: also called murine eotaxin
B2: CAT-213 (antibody, V domains shown)
VH: QVQLVQSGGGVVQPGRSLRLSCAASGFTFSSYGMHWVRQAPGKGLEWVAVISYDGSIKHYADSVKGRFTISRDNSKNTLYLQMNSLRTDDTAVYYCAGDTDYGDIDPWGQGTMVTVSS
VL: DIQMTQSPSSVSASVGDRVTITCRASQDISSWLAWYQQKPGKAPKLLIYAASSLQSGVPSRFSGSGSGTDFTLTISSLQPEDFATYYCQQASSFPSITFGQGTRLEIKR
notes: Expressed in NS0 cells and purified on Protein A

For one experiment, the target named is T1, CAT-212.
T1 construct: Human scFv; IMAC-purified soluble scFv in the Western blot and Flash Plate assays; FPLC-purified monomeric scFv in the chemotaxis assay
Put plainly: Flash Plate scintillation competition: unlabelled mouse eotaxin against [125I]eotaxin for coated CAT-212; mean of two estimates. How it is done:
Flash Plate™ was prepared as described in Example 6. Eleven serial one in three dilutions of unlabelled human and mouse Eotaxin (R&D) in Assay Buffer and mixed with ¹²⁵I-Eotaxin prepared at an estimated concentration of 30 pM and 100 μl added to the wells in duplicate. The plate was sealed and incubated at room temperature for two hours, counted and the data processed as described in Example 6.

The experiment “Mouse eotaxin” deals with B1. In words: cell-based or functional assay.
For experiment [1], the target named is T2, Human eotaxin (human, UniProt P51671 24-97, 125-iodine label in the Flash Plate assays; site not given). In words: cell-based or functional assay.
T2 sequence (P51671 24-97 limits assumed): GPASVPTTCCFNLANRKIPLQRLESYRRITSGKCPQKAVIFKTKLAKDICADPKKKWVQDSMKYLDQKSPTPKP
In a further experiment the target is Rhesus monkey eotaxin (rhesus monkey, UniProt Q8MIT7 24-97, limits assumed). Put plainly: cell-based or functional assay.
Chain of Rhesus monkey eotaxin (Q8MIT7 24-97 limits assumed): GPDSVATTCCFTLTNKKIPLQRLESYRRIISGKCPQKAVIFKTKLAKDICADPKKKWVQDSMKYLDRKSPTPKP
Experiment [2] addresses T2, Human eotaxin. In words: Flash Plate scintillation competition: soluble CAT-213 against coated CAT-212 (competitor) for [125I]eotaxin; mean of 4 estimates. The protocol:
The Flash Plate assay was performed essentially as described in Example 6.

By IC50 is commonly meant the midpoint of a concentration-inhibition curve. Take B1: the concentration for half-maximal inhibition (IC50) with CAT-212 was 296 nM.

In the case of B2, the “geometric mean IC50, inhibition of mouse eotaxin-mediated chemotaxis of L1.2-CCR3 cells” value in the experiment with Mouse eotaxin worked out at 2630 nM. In the experiment with Human eotaxin [1], the “IC50, inhibition of eotaxin-mediated chemotaxis of CCR3-transfected L1.2 cells” value is 0.7 nM; the “geometric mean IC50, inhibition of eotaxin-evoked shape change of human eosinophils” value was found to be 0.714 nM; the “geometric mean IC50, inhibition of eotaxin-mediated chemotaxis of human eosinophils” value came out at 1.53 nM. In the experiment with Rhesus monkey eotaxin, the “geometric mean IC50, inhibition of rhesus monkey eotaxin-mediated chemotaxis of L1.2-CCR3 cells” value turned out to be 303 nM. Also, the 50% inhibitory concentration (IC50) with Human eotaxin [2] is 0.0593 nM.
